Measurements from patent US20250066503A1, “CELL INJURY INDUCING THERAPEUTIC DRUG FOR USE IN CANCER THERAPY” (CHUGAI SEIYAKU KABUSHIKI KAISHA, priority 2016, published 2025).
Residue numbers refer to the chain shown, from its start.

B1: TR01H010-E22Hh/none-Hi-Kn010G3/L0000-k0 (antibody, V domains shown)
VH: QVQLVESGGGLVQPGRSLRLSCAASGFTFSNAWMHWVRQAPGKGLEWVAQIKAKSNNYATYYAESVKGRFTISRADSKNSIYLQMNSLKTEDTAVYYCRYVHYSAYYGVDIWGQGTTVTVSS
VL: DIVMTQSPLSLPVTPGEPASISCRSSQSLVHSNRNTYLHWYQQKPGQAPRLLIYKVSNRFSGVPDRFSGSGSGTDFTLKISRVEAEDVGVYYCGQGTQVPYTFGQGTKLEIKR
notes: one-arm
B2: TR01H011-E22Hh/none-Hi-Kn010G3/L0000-k0 (antibody, V domains shown)
VH: B1 VH with S104G, Y106S
VL: B1 VL
notes: one-arm
B3: TR01H012-E22Hh/none-Hi-Kn010G3/L0000-k0 (antibody, V domains shown)
VH: B1 VH with S104Y, A105Y, Y106S
VL: B1 VL
notes: one-arm
B4: TR01H013-E22Hh/none-Hi-Kn010G3/L0000-k0 (antibody, V domains shown)
VH: B1 VH with A53G, N56Q, S104G
VL: B1 VL
notes: one-arm
B5: TR01H014-E22Hh/none-Hi-Kn010G3/L0000-k0 (antibody, V domains shown)
VH: B1 VH with A53G, E64P, S104G
VL: B1 VL
notes: one-arm
B6: TR01H016-E22Hh/none-Hi-Kn010G3/L0000-k0 (antibody, V domains shown)
VH: B1 VH with A53G, A105Y, Y106S
VL: B1 VL
notes: one-arm
B7: TR01H017-E22Hh/none-Hi-Kn010G3/L0000-k0 (antibody, V domains shown)
VH: B1 VH with R16G, S104G
VL: B1 VL
notes: one-arm
B8: TR01H018-E22Hh/none-Hi-Kn010G3/L0000-k0 (antibody)
VH: B1 VH with R16G, A53G, Y106S
light: DIVMTQSPLSLPVTPGEPASISCRSSQSLVHSNRNTYLHWYQQKPGQAPRLLIYKVSNRFSGVPDRFSGSGSGTDFTLKISRVEAEDVGVYYCGQGTQVPYTFGQGTKLEIKRTVAAPSVFIFPPSDEQLKSGTASVVCLLNNFYPREAKVQWKVDNALQSGNSQESVTEQDSKDSTYSLSSTLTLSKADYEKHKVYACEVTHQGLSSPVTKSFNRGEC
notes: one-arm
B9: TR01H019-E22Hh/none-Hi-Kn010G3/L0000-k0 (antibody, V domains shown)
VH: B1 VH with A53G, N56Q, Y106S
VL: B1 VL
notes: one-arm
B10: TR01H020-E22Hh/none-Hi-Kn010G3/L0000-k0 (antibody, V domains shown)
VH: B1 VH with A53G, E64P, Y106S
VL: B1 VL
notes: one-arm
B11: TR01H021-E22Hh/none-Hi-Kn010G3/L0000-k0 (antibody, V domains shown)
VH: B1 VH with A53G, Y106S, I111A
VL: B1 VL
notes: one-arm
B12: TR01H022-E22Hh/none-Hi-Kn010G3/L0000-k0 (antibody, V domains shown)
VH: B1 VH with R16G, A53G, N56Q, E64P, Y106S
VL: B1 VL
notes: one-arm
B13: TR01H023-E22Hh/none-Hi-Kn010G3/L0000-k0 (antibody, V domains shown)
VH: B1 VH with R16G, A53G, N56Q, Y106S
VL: B1 VL
notes: one-arm
B14: TR01H024-E22Hh/none-Hi-Kn010G3/L0000-k0 (antibody, V domains shown)
VH: B1 VH with R16G, A53G, N56Q, Y106S, I111A
VL: B1 VL
notes: one-arm
B15: TR01H025-E22Hh/none-Hi-Kn010G3/L0000-k0 (antibody, V domains shown)
VH: B1 VH with A53S, N56Q, Y106S
VL: B1 VL
notes: one-arm
B16: TR01H026-E22Hh/none-Hi-Kn010G3/L0000-k0 (antibody, V domains shown)
VH: B1 VH with R16G, A53S, N56Q, Y106S
VL: B1 VL
notes: one-arm
B17: TR01H027-E22Hh/none-Hi-Kn010G3/L0000-k0 (antibody, V domains shown)
VH: B1 VH with R16G, A53S, N56Q, Y106S, I111A
VL: B1 VL
notes: one-arm
B18: TR01H028-E22Hh/none-Hi-Kn010G3/L0000-k0 (antibody, V domains shown)
VH: B1 VH with L11V, R16G, A53S, N56Q, Y106S
VL: B1 VL
notes: one-arm
B19: TR01H029-E22Hh/none-Hi-Kn010G3/L0000-k0 (antibody, V domains shown)
VH: B1 VH with A23S, A53G, Y106S
VL: B1 VL
notes: one-arm
B20: TR01H030-E22Hh/none-Hi-Kn010G3/L0000-k0 (antibody)
VH: B1 VH with L11V, A53G, Y106S
light: B8 light
notes: one-arm
B21: TR01H031-E22Hh/none-Hi-Kn010G3/L0000-k0 (antibody)
VH: B1 VH with L11V, R16G, A53G, Y106S
light: B8 light
notes: one-arm
B22: TR01H032-E22Hh/none-Hi-Kn010G3/L0000-k0 (antibody, V domains shown)
VH: B1 VH with A53S, N56Q, Y106S, I111A
VL: B1 VL
notes: one-arm
B23: TR01H033-E22Hh/none-Hi-Kn010G3/L0000-k0 (antibody, V domains shown)
VH: B1 VH with A53S, N56Q, Y106S, I111Y
VL: B1 VL
notes: one-arm
B24: TR01H034-E22Hh/none-Hi-Kn010G3/L0000-k0 (antibody, V domains shown)
VH: B1 VH with A53G, N56Q, Y106S, I111A
VL: B1 VL
notes: one-arm
B25: TR01H035-E22Hh/none-Hi-Kn010G3/L0000-k0 (antibody, V domains shown)
VH: B1 VH with A53G, N56Q, Y106S, I111Y
VL: B1 VL
notes: one-arm
B26: TR01H036-E22Hh/none-Hi-Kn010G3/L0000-k0 (antibody, V domains shown)
VH: B1 VH with A53G, Y106S, I111Y
VL: B1 VL
notes: one-arm
B27: TR01H037-E22Hh/none-Hi-Kn010G3/L0000-k0 (antibody, V domains shown)
VH: B1 VH with H35P, A53G, Y106S
VL: B1 VL
notes: one-arm
B28: TR01H038-E22Hh/none-Hi-Kn010G3/L0000-k0 (antibody, V domains shown)
VH: B1 VH with A53D, Y106S
VL: B1 VL
notes: one-arm
B29: TR01H039-E22Hh/none-Hi-Kn010G3/L0000-k0 (antibody, V domains shown)
VH: B1 VH with A53D, N56Q, Y106S
VL: B1 VL
notes: one-arm
B30: TR01H040-E22Hh/none-Hi-Kn010G3/L0000-k0 (antibody, V domains shown)
VH: B1 VH with A53D, N56Q, Y106S, I111A
VL: B1 VL
notes: one-arm
B31: TR01H040-E22Hh/none-Hi-Kn010G3/L0011-k0 (antibody, V domains shown)
VH: B1 VH with A53D, N56Q, Y106S, I111A
VL: B1 VL with S28P
notes: one-arm
B32: TR01H040-E22Hh/none-Hi-Kn010G3/L0201-k0 (antibody, V domains shown)
VH: B1 VH with A53D, N56Q, Y106S, I111A
VL: B1 VL with S28P, L29P
notes: one-arm
B33: TR01H040-E22Hh/none-Hi-Kn010G3/L0203-k0 (antibody, V domains shown)
VH: B1 VH with A53D, N56Q, Y106S, I111A
VL: B1 VL with L29P, L38I
notes: one-arm
B34: TR01H040-E22Hh/none-Hi-Kn010G3/L0204-k0 (antibody, V domains shown)
VH: B1 VH with A53D, N56Q, Y106S, I111A
VL: B1 VL with L29P, S61R
notes: one-arm
B35: TR01H040-E22Hh/none-Hi-Kn010G3/L0206-k0 (antibody, V domains shown)
VH: B1 VH with A53D, N56Q, Y106S, I111A
VL: B1 VL with L29P, G94Y
notes: one-arm
B36: TR01H040-E22Hh/none-Hi-Kn010G3/L0208-k0 (antibody, V domains shown)
VH: B1 VH with A53D, N56Q, Y106S, I111A
VL: B1 VL with L29P, S61W, G94Y
notes: one-arm
B37: TR01H040-E22Hh/none-Hi-Kn010G3/L0209-k0 (antibody, V domains shown)
VH: B1 VH with A53D, N56Q, Y106S, I111A
VL: B1 VL with L29P, L38I, G94Y
notes: one-arm
B38: TR01H040-E22Hh/none-Hi-Kn010G3/L0211-k0 (antibody, V domains shown)
VH: B1 VH with A53D, N56Q, Y106S, I111A
VL: B1 VL with S28P, L29P, G94Y
notes: one-arm
B39: TR01H040-E22Hh/none-Hi-Kn010G3/L0212-k0 (antibody, V domains shown)
VH: B1 VH with A53D, N56Q, Y106S, I111A
VL: B1 VL with S25P, L29P, G94Y
notes: one-arm
B40: TR01H040-E22Hh/none-Hi-Kn010G3/L0222-k0 (antibody, V domains shown)
VH: B1 VH with A53D, N56Q, Y106S, I111A
VL: B1 VL with L29P, L38I, H39Q, G94Y
notes: one-arm
B41: TR01H041-E22Hh/none-Hi-Kn010G3/L0000-k0 (antibody, V domains shown)
VH: B1 VH with A53D, N56Q, Y106S, I111Y
VL: B1 VL
notes: one-arm
B42: TR01H042-E22Hh/none-Hi-Kn010G3/L0000-k0 (antibody, V domains shown)
VH: B1 VH with L11V, R16G, A53D, N56Q, Y106S, I111A
VL: B1 VL
notes: one-arm
B43: TR01H043-E22Hh/none-Hi-Kn010G3/L0000-k0 (antibody, V domains shown)
VH: B1 VH with A23S, A53D, Y106S
VL: B1 VL
notes: one-arm
B44: TR01H044-E22Hh/none-Hi-Kn010G3/L0000-k0 (antibody, V domains shown)
VH: B1 VH with A23S, A53D, N56Q, Y106S
VL: B1 VL
notes: one-arm
B45: TR01H045-E22Hh/none-Hi-Kn010G3/L0000-k0 (antibody, V domains shown)
VH: B1 VH with A23S, A53D, N56Q, Y106S, I111A
VL: B1 VL
notes: one-arm

Target: T1, soluble human CD3 epsilon chain (human, UniProt P07766 23-126)
T1 construct: also called CD3ε
Assay: SPR

T1 sequence (P07766 23-126 limits assumed): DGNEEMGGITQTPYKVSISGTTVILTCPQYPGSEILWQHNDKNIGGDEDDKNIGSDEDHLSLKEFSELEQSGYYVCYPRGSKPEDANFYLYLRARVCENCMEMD

| Kd [nM] | Binder |
| --- | --- |
| 37.3 | B1 |
| 37.1 | B2 |
| 7.94 | B3 |
| 49.4 | B4 |
| 38.7 | B5 |
| 36.9 | B6 |
| 35 | B7 |
| 69.3 | B8 |
| 68.5 | B9 |
| 64.8 | B10 |
| 80.5 | B11 |
| 75.8 | B12 |
| 79.4 | B13 |
| 108 | B14 |
| 38.6 | B15 |
| 51.2 | B16 |
| 69.5 | B17 |
| 48 | B18 |
| 67 | B19 |
| 65.4 | B20 |
| 75.5 | B21 |
| 57.3 | B22 |
| 48.8 | B23 |

| Kd [nM] | Binder |
| --- | --- |
| 91.1 | B24 |
| 84.9 | B25 |
| 65 | B26 |
| 6.93 | B27 |
| 12.4 | B28 |
| 26.1 | B29 |
| 36 | B30 |
| 34.8 | B31 |
| 28.1 | B32 |
| 32.4 | B33 |
| 22.1 | B34 |
| 2.9 | B35 |
| 4.16 | B36 |
| 4.25 | B37 |
| 3.22 | B38 |
| 2.17 | B39 |
| 46.5 | B40 |
| 31.6 | B41 |
| 44.8 | B42 |
| 15.2 | B43 |
| 35.2 | B44 |
| 52.2 | B45 |
